Laboratory results as given in FireProtDB (doi:10.1021/bi00252a018).

B1: Subtilisin inhibitor, P01006 (parent)
chain: MRNTGAGPSPSVSRPPPSAAPLSGAALAAPGDAPSALYAPSALVLTVGKGVSATTAAPERAVTLTCAPGPSGTHPAAGSACADLAAVGGDLNALTRGEDVMCPMVYDPVLLTVDGVWQGKRVSYERVFSNECEMNAHGSSVFAF

Variants of: B1
Conditions: Streptomyces albogriseolus; pH 2.3; Thermal; DSC; glycine 25 mM; reversible: yes (70-85%); structure 3SSI; whole UniProt chain shown

Variant | Tm [°C]
MRNTGAGPSPSVSRPPPSAAPLSGAALAAPGDAPSALYAPSALVLTVGKGVSATTAAPERAVTLTCAPGPSGTHPAAGSACADLAAVGGDLNALTRGEDVMCPMVYDPVLLTVCGVWQGKRVSYERVFSNECEMNAHGSSVFAF [D114C] | 48

Same assay, conditions: Streptomyces albogriseolus; pH 2.4; Thermal; DSC; glycine 25 mM; reversible: yes (70-85%); structure 3SSI; whole UniProt chain shown

Variant | Tm [°C]
MRNTGAGPSPSVSRPPPSAAPLSGAALAAPGDAPSALYAPSALVLTVGKGVSATTAAPERAVTLTCAPGPSGTHPAAGSACADLAAVGGDLNALTRGEDVMCPMVYDPVLLTVCGVWQGKRVSYERVFSNECEMNAHGSSVFAF [D114C] | 50

Same assay, conditions: Streptomyces albogriseolus; pH 2.5; Thermal; DSC; glycine 25 mM; reversible: yes (70-85%); structure 3SSI; whole UniProt chain shown

Variant | Tm [°C]
MRNTGAGPSPSVSRPPPSAAPLSGAALAAPGDAPSALYAPSALVLTVGKGVSATTAAPERAVTLTCAPGPSGTHPAAGSACADLAAVGGDLNALTRGEDVMCPMVYDPVLLTVCGVWQGKRVSYERVFSNECEMNAHGSSVFAF [D114C] | 52.5

Same assay, conditions: Streptomyces albogriseolus; pH 2.56; Thermal; DSC; glycine 25 mM; reversible: yes (70-85%); structure 3SSI; whole UniProt chain shown

Variant | Tm [°C]
MRNTGAGPSPSVSRPPPSAAPLSGAALAAPGDAPSALYAPSALVLTVGKGVSATTAAPERAVTLTCAPGPSGTHPAAGSACADLAAVGGDLNALTRGEDVMCPMVYDPVLLTVCGVWQGKRVSYERVFSNECEMNAHGSSVFAF [D114C] | 53.2

Same assay, conditions: Streptomyces albogriseolus; pH 2.59; Thermal; DSC; glycine 25 mM; reversible: yes (70-85%); structure 3SSI; whole UniProt chain shown

Variant | Tm [°C]
MRNTGAGPSPSVSRPPPSAAPLSGAALAAPGDAPSALYAPSALVLTVGKGVSATTAAPERAVTLTCAPGPSGTHPAAGSACADLAAVGGDLNALTRGEDVMCPMVYDPVLLTVCGVWQGKRVSYERVFSNECEMNAHGSSVFAF [D114C] | 54.2

Same assay, conditions: Streptomyces albogriseolus; pH 2.68; Thermal; DSC; glycine 25 mM; reversible: yes (70-85%); structure 3SSI; whole UniProt chain shown

Variant | Tm [°C]
MRNTGAGPSPSVSRPPPSAAPLSGAALAAPGDAPSALYAPSALVLTVGKGVSATTAAPERAVTLTCAPGPSGTHPAAGSACADLAAVGGDLNALTRGEDVMCPMVYDPVLLTVCGVWQGKRVSYERVFSNECEMNAHGSSVFAF [D114C] | 56.2

Same assay, conditions: Streptomyces albogriseolus; pH 2.8; Thermal; DSC; glycine 25 mM; reversible: yes (70-85%); structure 3SSI; whole UniProt chain shown

Variant | Tm [°C]
MRNTGAGPSPSVSRPPPSAAPLSGAALAAPGDAPSALYAPSALVLTVGKGVSATTAAPERAVTLTCAPGPSGTHPAAGSACADLAAVGGDLNALTRGEDVMCPMVYDPVLLTVCGVWQGKRVSYERVFSNECEMNAHGSSVFAF [D114C] | 58.8

Same assay, conditions: Streptomyces albogriseolus; pH 2.88; Thermal; DSC; glycine 25 mM; reversible: yes (70-85%); structure 3SSI; whole UniProt chain shown

Variant | Tm [°C]
MRNTGAGPSPSVSRPPPSAAPLSGAALAAPGDAPSALYAPSALVLTVGKGVSATTAAPERAVTLTCAPGPSGTHPAAGSACADLAAVGGDLNALTRGEDVMCPMVYDPVLLTVCGVWQGKRVSYERVFSNECEMNAHGSSVFAF [D114C] | 59.9

Same assay, conditions: Streptomyces albogriseolus; pH 2.89; Thermal; DSC; glycine 25 mM; reversible: yes (70-85%); structure 3SSI; whole UniProt chain shown

Variant | Tm [°C]
MRNTGAGPSPSVSRPPPSAAPLSGAALAAPGDAPSALYAPSALVLTVGKGVSATTAAPERAVTLTCAPGPSGTHPAAGSACADLAAVGGDLNALTRGEDVMCPMVYDPVLLTVCGVWQGKRVSYERVFSNECEMNAHGSSVFAF [D114C] | 60.5

Same assay, conditions: Streptomyces albogriseolus; pH 2.94; Thermal; DSC; glycine 25 mM; reversible: yes (70-85%); structure 3SSI; whole UniProt chain shown

Variant | Tm [°C] | change of melting temperature, mutant - wild type (higher = more stable) [°C]
MRNTGAGPSPSVSRPPPSAAPLSGAALAAPGDAPSALYAPSALVLTVGKGVSATTAAPERAVTLTCAPGPSGTHPAAGSACADLAAVGGDLNALTRGEDVMCPMVYDPVLLTVCGVWQGKRVSYERVFSNECEMNAHGSSVFAF [D114C] | 61.2 | 17.2

Same assay, conditions: Streptomyces albogriseolus; pH 3.04; Thermal; DSC; glycine 25 mM; reversible: yes (70-85%); structure 3SSI; whole UniProt chain shown

Variant | Tm [°C] | change of melting temperature, mutant - wild type (higher = more stable) [°C]
MRNTGAGPSPSVSRPPPSAAPLSGAALAAPGDAPSALYAPSALVLTVGKGVSATTAAPERAVTLTCAPGPSGTHPAAGSACADLAAVGGDLNALTRGEDVMCPMVYDPVLLTVCGVWQGKRVSYERVFSNECEMNAHGSSVFAF [D114C] | 63.2 | 15.6

Same assay, conditions: Streptomyces albogriseolus; pH 3.07; Thermal; DSC; glycine 25 mM; reversible: yes (70-85%); structure 3SSI; whole UniProt chain shown

Variant | Tm [°C] | change of melting temperature, mutant - wild type (higher = more stable) [°C]
MRNTGAGPSPSVSRPPPSAAPLSGAALAAPGDAPSALYAPSALVLTVGKGVSATTAAPERAVTLTCAPGPSGTHPAAGSACADLAAVGGDLNALTRGEDVMCPMVYDPVLLTVCGVWQGKRVSYERVFSNECEMNAHGSSVFAF [D114C] | 64.5 | 15.7

Same assay, conditions: Streptomyces albogriseolus; pH 3.16; Thermal; DSC; glycine 25 mM; reversible: yes (70-85%); structure 3SSI; whole UniProt chain shown

Variant | Tm [°C] | change of melting temperature, mutant - wild type (higher = more stable) [°C]
MRNTGAGPSPSVSRPPPSAAPLSGAALAAPGDAPSALYAPSALVLTVGKGVSATTAAPERAVTLTCAPGPSGTHPAAGSACADLAAVGGDLNALTRGEDVMCPMVYDPVLLTVCGVWQGKRVSYERVFSNECEMNAHGSSVFAF [D114C] | 66.5 | 14.3

Same assay, conditions: Streptomyces albogriseolus; pH 3.25; Thermal; DSC; glycine 25 mM; reversible: yes (70-85%); structure 3SSI; whole UniProt chain shown

Variant | Tm [°C] | change of melting temperature, mutant - wild type (higher = more stable) [°C]
MRNTGAGPSPSVSRPPPSAAPLSGAALAAPGDAPSALYAPSALVLTVGKGVSATTAAPERAVTLTCAPGPSGTHPAAGSACADLAAVGGDLNALTRGEDVMCPMVYDPVLLTVCGVWQGKRVSYERVFSNECEMNAHGSSVFAF [D114C] | 68.8 | 13.1

Same assay, conditions: Streptomyces albogriseolus; pH 7; Thermal; DSC; phosphate 25 mM; reversible: yes (70-85%); structure 3SSI; whole UniProt chain shown

Variant | Tm [°C] | change of melting temperature, mutant - wild type (higher = more stable) [°C]
MRNTGAGPSPSVSRPPPSAAPLSGAALAAPGDAPSALYAPSALVLTVGKGVSATTAAPERAVTLTCAPGPSGTHPAAGSACADLAAVGGDLNALTRGEDVMCPMVYDPVLLTVCGVWQGKRVSYERVFSNECEMNAHGSSVFAF [D114C] | 95.3 | 13.3

Same assay, conditions: Streptomyces albogriseolus; pH 9.5; Thermal; DSC; glycine 25 mM; reversible: yes (70-85%); structure 3SSI; whole UniProt chain shown

Variant | Tm [°C] | change of melting temperature, mutant - wild type (higher = more stable) [°C]
MRNTGAGPSPSVSRPPPSAAPLSGAALAAPGDAPSALYAPSALVLTVGKGVSATTAAPERAVTLTCAPGPSGTHPAAGSACADLAAVGGDLNALTRGEDVMCPMVYDPVLLTVCGVWQGKRVSYERVFSNECEMNAHGSSVFAF [D114C] | 95 | 14.3

Same assay, conditions: Streptomyces albogriseolus; pH 9.75; Thermal; DSC; glycine 25 mM; reversible: yes (70-85%); structure 3SSI; whole UniProt chain shown

Variant | Tm [°C] | change of melting temperature, mutant - wild type (higher = more stable) [°C]
MRNTGAGPSPSVSRPPPSAAPLSGAALAAPGDAPSALYAPSALVLTVGKGVSATTAAPERAVTLTCAPGPSGTHPAAGSACADLAAVGGDLNALTRGEDVMCPMVYDPVLLTVCGVWQGKRVSYERVFSNECEMNAHGSSVFAF [D114C] | 94.8 | 14.6
